Where a SMILES comes first, the peptide text is derived from it. Bridges are numbered along the chain shown (N, C = ends).
How the values were obtained:
[1] = molecular target: QS-13 peptide (…), minimal active sequence of Tetrastatin, the α4(IV) NC1 domain of collagen IV
[2] = molecular target: QS-13 peptide (…), minimal active sequence of Tetrastatin, the α4(IV) NC1 domain of collagen IV; remark: listed apart in the source
[3] = tested on: cancer patients; parameters: method as in 3 sources, one per row (each row's own in cited_ref): ref Besse et al., 2013 ||| ref Cianfrocca et al., 2006 ||| ref Alday-Parejo et al., 2019; settings: cited from earlier work
[4] = tested on: cancer; settings: ref Stoeltzing et al., 2003; Khalili et al., 2006; cited from earlier work
Text: Peptides also emerged as important therapeutic agents in angiogenesis-dependent diseases due to their low toxicity and high specificity ([Rosca et al., 2011]).

[5] = molecular target: T1, α5β1 integrin (Homo sapiens, UniProt P05556+P08648); experiment: Surface plasmon resonance (Biacore T200); format: binding; settings: biotinylated QS-13 (QKISRCQVCVKYSK-biot) captured on streptavidin CM5 chip; α5β1 integrin 0.12-130 nM; HBS pH 7.4, 3.4 mM EDTA, 0.05% P20, 25°C; Req fitted to 1:1 model
T1 construct: purchased R&D Systems 3230-A5-050
Procedure: All experiments were performed on a Biacore T200 instrument (GE Healthcare) at 25°C. Sensor surfaces and other Biacore consumables were purchased from GE Healthcare. Integrin α5β1 was from R&D Systems. The running buffer, HEPES buffered saline (HBS, composed of 0.01 M HEPES, pH 7.4, 0.15 M NaCl, 3.4 mM EDTA) was filtered through a 0.22 μm membrane and supplemented with 0.05% P20. Biotinylated peptides were captured on streptavidin-coated sensor chips. Briefly, CM5 sensor chips (GE Healthcare) were preconditioned by duplicate injections of 10 mM HCl, 50 mM NaOH, each for 10 s, and water for 20 s. Before covalent immobilization of streptavidin, traces of biotinylated products that could remain in the flow system were neutralized by injecting a streptavidin solution (0.1 mg/mL in running buffer) for 5 min through all flow cells ([Baltzinger et al., 2013]). Streptavidin was then stably immobilized using standard amine-coupling methods. The flow rate was 10 μL/min. […] The equilibrium response (Req) was recorded 5 s before the end of integrin injection. The KD was determined by fitting the equilibrium response versus the [integrin] curve to a simple 1:1 interaction model with the Biacore T200 evaluation software (GE Healthcare).

[6] = tested on: HUVEC adhesion on QS-13; experiment: HUVEC adhesion on QS-13 coating with effector preincubation; format: cell-based, Human; settings: peptide 20 μg/mL (legend Figure 5), 30 min preincubation; adhesion 60 min; n = 8, p < 0.001
Procedure: Cells were detached with 50 mM Hepes, 125 mM NaCl, 5 mM KCl, and 1 mM EDTA, washed three times with ECGM, pre-incubated for 30 min with effectors [mouse anti-human α5β1, catalog number 555614 from BD Pharmingen (10 μg/mL), irrelevant IgG ([…])]. 10,000 cells were seeded per well of a 96 well-plate previously coated with QS-13 and saturated with 1% BSA. After 60 min, cells were washed three times with HEPES buffered Balanced Salt Solution, fixed with 1.1% glutaraldehyde solution and stained with 1% crystal violet solution. Staining was extracted with 10% acetic acid and absorbance was read at 560 nm.
For in vitro experiments, results are expressed as the mean ± SD and statistical significance were determined using Student’s t-test. For in vivo experiments, the non-parametric Mann–Whitney test was performed.

[7] = molecular target: T1, α5β1 integrin; experiment: Solid phase assay, binding to coated integrin; settings: coated 25 nM α5β1 integrin; biotinylated QS-13 90 min, room temperature, 1 mM MgCl2 and CaCl2; streptavidin-peroxidase/TMB 450 nm; n = 4, 2 experiments
Procedure: Wells of a 96-well plate were coated with 25 nM α5β1 integrin (3230-A5-050; R&D Systems, Lille, France) in amounts overnight at room temperature. The coating was then blocked with TBS containing 5% dry milk, 1 mM MgCl2, and 1 mM CaCl2 for 2 h at room temperature. After washing three times with washing buffer (0.1% dry milk, 1 mM MgCl2, and 1 mM CaCl2 in TBS), the plate was incubated for 90 min at room temperature with 100 μL per well of ranging from 1.25 to 20.10^–11 moles/well biotinylated-QS-13 diluted in washing buffer. After 3 washes, 100 μL of streptavidin-peroxidase diluted 1/20000 in washing buffer were added to each well and incubated for 15 min at room temperature. After 4 washes, 100 μL per well of tetramethylbenzidine (TMB), a peroxidase substrate, were added and incubated in the dark for 15 min. The enzymatic reaction was stopped by adding 50 μL per well of 0.5 M H2SO4. The intensity of the yellow coloration was measured at 450 nm with a Biochrom Asys UVM 340 microplate reader.

[8] = tested on: angiogenesis, tumor growth and metastasis; parameters: method as in Almokadem and Belani, 2012; settings: mice; ref Almokadem and Belani, 2012; cited from earlier work
[9] = molecular target: Biotinylated QS-13 (…-biot); experiment: SPR; Biacore T200, 25°C; biotinylated QS-13 captured on a streptavidin-coated CM5 chip; α5β1 integrin injected at 0.12-130 nM, 300 s; HBS (0.01 M HEPES pH 7.4, 0.15 M NaCl, 3.4 mM EDTA) with 0.05% P20; reference surface with an irrelevant biotinylated peptide; equilibrium response fitted to a 1:1 model
[10] = tested on: angiogenesis; settings: ref Petitclerc et al., 2000; Wietecha et al., 2013; Monboisse et al., 2014; cited from earlier work
Text: Basement membrane are composed of type IV collagen in association with other minor collagens, such as collagens XVIII or XIX, laminins, nidogens, and perlecan. Type IV collagen is composed of three α(IV) chains, out of six possible [α1(IV)-α6(IV)]. Each α(IV) chain comprises a 7S N-terminal domain, a long interrupted triple helical domain and a globular C-terminal non-collagenous (NC1) domain ([Wu and Ge, 2019]).

[11] = tested on: αvβ3 integrin; settings: tumor cell surface; ref Pasco et al., 2000; Brassart-Pasco et al., 2012; Lambert et al., 2018; cited from earlier work
Text: The NC1 domains of the different α(IV) collagen chains were reported to exert anti-tumor or anti-angiogenic effects ([Mundel and Kalluri, 2007]; [Monboisse et al., 2014]; [Brassart-Pasco et al., 2020]).

[12] = molecular target: T1, α5β1 integrin; parameters: method as in Sudhakar et al., 2003; settings: ref Sudhakar et al., 2003; cited from earlier work

T1 sequence (P08648 42-894 limits assumed): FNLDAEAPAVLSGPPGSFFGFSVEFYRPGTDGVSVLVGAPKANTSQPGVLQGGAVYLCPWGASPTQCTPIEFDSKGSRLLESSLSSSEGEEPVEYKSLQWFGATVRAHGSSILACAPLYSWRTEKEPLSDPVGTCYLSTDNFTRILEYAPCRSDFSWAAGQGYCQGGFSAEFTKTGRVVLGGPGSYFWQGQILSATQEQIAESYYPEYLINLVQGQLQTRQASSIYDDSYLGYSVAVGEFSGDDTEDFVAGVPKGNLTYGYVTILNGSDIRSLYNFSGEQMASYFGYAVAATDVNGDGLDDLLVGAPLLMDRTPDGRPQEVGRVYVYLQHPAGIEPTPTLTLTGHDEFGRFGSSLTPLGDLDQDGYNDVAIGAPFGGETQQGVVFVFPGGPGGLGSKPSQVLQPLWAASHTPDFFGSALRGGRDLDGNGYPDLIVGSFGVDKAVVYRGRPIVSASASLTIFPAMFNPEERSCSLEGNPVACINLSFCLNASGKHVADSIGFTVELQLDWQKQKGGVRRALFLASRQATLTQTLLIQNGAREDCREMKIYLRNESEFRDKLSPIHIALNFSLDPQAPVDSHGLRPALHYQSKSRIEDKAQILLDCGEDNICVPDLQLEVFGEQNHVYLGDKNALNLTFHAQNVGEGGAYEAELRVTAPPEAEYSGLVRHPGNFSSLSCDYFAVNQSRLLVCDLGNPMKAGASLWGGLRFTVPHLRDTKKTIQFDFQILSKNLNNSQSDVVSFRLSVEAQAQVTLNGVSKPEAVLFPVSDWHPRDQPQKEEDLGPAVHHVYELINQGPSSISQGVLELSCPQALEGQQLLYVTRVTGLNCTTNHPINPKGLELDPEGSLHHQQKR
T1 sequence (P08648 895-995 partner limits assumed): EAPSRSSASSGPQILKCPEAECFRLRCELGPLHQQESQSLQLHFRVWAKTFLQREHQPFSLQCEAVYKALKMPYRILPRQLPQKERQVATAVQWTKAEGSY
T1 sequence (P05556 21-728 limits assumed): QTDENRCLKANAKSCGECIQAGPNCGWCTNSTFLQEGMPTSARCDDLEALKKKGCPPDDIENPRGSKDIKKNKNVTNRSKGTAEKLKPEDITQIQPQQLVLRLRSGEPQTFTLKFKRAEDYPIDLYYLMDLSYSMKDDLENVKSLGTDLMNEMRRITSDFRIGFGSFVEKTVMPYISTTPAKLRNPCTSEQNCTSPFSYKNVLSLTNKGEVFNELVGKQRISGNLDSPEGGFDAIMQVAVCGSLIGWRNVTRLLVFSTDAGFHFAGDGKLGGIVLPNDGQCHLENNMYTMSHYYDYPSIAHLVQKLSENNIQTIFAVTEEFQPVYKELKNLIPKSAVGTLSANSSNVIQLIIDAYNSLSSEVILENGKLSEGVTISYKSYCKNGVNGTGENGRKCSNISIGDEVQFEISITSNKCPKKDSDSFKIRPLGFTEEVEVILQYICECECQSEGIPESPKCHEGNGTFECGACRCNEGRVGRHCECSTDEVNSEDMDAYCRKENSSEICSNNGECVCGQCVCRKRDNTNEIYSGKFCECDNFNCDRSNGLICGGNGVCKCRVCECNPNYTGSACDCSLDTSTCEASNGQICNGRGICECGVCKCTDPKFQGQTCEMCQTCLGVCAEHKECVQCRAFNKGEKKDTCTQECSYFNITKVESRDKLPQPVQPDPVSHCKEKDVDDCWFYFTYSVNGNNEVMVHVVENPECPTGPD

Molecule: α5β1 integrin of Human Umbilical Vein Endothelial Cells (HUVEC) (from UniProt P05556 21-798) (receptor)
- HUVEC adhesion on coated QS-13 after pre-incubation of the cells with a blocking anti-α5β1 integrin antibody (10 μg/mL): inhibition of adhesion; an irrelevant IgG had no effect [1]: 71%
- HUVEC adhesion on coated QS-13 after 30 min pre-incubation of the cells with RGDS peptide: change of adhesion [2]: -60%

Molecule: Ac-PHSCN-NH(2) [ATN-161, reference compound]
- clinical benefit ([3]; ref Cianfrocca et al., 2006): failed to provide therapeutic benefits
- preclinical anti-cancer activity [4]: showed preclinical anti-cancer activities

Molecule: CC[C@H](C)[C@H](NC(=O)[C@H](CCCCN)NC(=O)[C@@H](N)CCC(N)=O)C(=O)N[C@@H](CO)C(=O)N[C@@H](CCCNC(=N)N)C(=O)N[C@H]1CSSC[C@@H](C(=O)N[C@H](C(=O)N[C@@H](CCCCN)C(=O)N[C@@H](Cc2ccc(O)cc2)C(=O)N[C@@H](CO)C(=O)O)C(C)C)NC(=O)[C@H](C(C)C)NC(=O)[C@H](CCC(N)=O)NC1=O [QS-13, QKISRCQVCVKYS] (H-QKISRCQVCVKYS-OH; disulfide 6-9)
- Kd [5]: 20.3 ± 7.5 nM

Molecule: RGDS [RGDS peptide, RGDS peptide (Sigma)]
- inhibition of HUVEC adhesion on QS-13 coating (peptide competition) [6]: about 60%

Molecule: QKISRCQVCVKYSK-biot (disulfide) [biotinylated-QS-13]
- binding to α5β1 integrin [7]: binds to α5β1 integrin in a ligand concentration dependent manner

Molecule: M200/volociximab: anti-α5β1 integrin antibody
- effect on angiogenesis, tumor growth and metastasis [8]: inhibit angiogenesis and to suppress tumor growth and metastasis in mice
- efficacy in advanced NSCLC ([3]; ref Besse et al., 2013): preliminary evidence of efficacy in advanced NSCLC

Molecule: α5β1 integrin (recombinant, R&D Systems 3230-A5-050) (from UniProt P08648 42-1049; P05556 21-728) (receptor)
- Kd [9]: 20.3 nM

B1: Tumstatin: the α3(IV) NC1 domain (protein, UniProt Q01955 1426-1670, looked up)
Tumstatin: PGLKGKRGDSGSPATWTTRGFVFTRHSQTTAIPSCPEGTVPLYSGFSFLFVQGNQRAHGQDLGTLGSCLQRFTTMPFLFCNVNDVCNFASRNDYSYWLSTPALMPMNMAPITGRALEPYISRCTVCEGPAIAIAVHSQTTDIPPCPHGWISLWKGFSFIMFTSAGSEGTGQALASPGSCLEEFRASPFLECHGRGTCNYYSNSYSFWLASLNPERMFRKPIPSTVKAGELEKIISRCQVCMKKRH
modifications: Tumstatin
notes: the α3(IV) NC1 domain
- effect on angiogenesis [10]: inhibit angiogenesis
- integrin mediating anti-tumor activity [11]: mediated through binding to αvβ3 integrin

B2: Canstatin: the α2(IV) NC1 domain (protein, UniProt P08572 1486-1712, looked up)
Canstatin: VSIGYLLVKHSQTDQEPMCPVGMNKLWSGYSLLYFEGQEKAHNQDLGLAGSCLARFSTMPFLYCNPGDVCYYASRNDKSYWLSTTAPLPMMPVAEDEIKPYISRCSVCEAPAIAIAVHSQDVSIPHCPAGWRSLWIGYSFLMHTAAGDEGGGQSLVSPGSCLEDFRATPFIECNGGRGTCHYYANKYSFWLTTIPEQSFQGSPSADTLKAGLIRTHISRCQVCMKNL
modifications: Canstatin
notes: the α2(IV) NC1 domain
- effect on angiogenesis [10]: inhibit angiogenesis

B3: endostatin: 20-kDa C-terminal fragment of type XVIII collagen (protein, UniProt P39060 1572-1754, looked up)
Endostatin: HSHRDFQPVLHLVALNSPLSGGMRGIRGADFQCFQQARAVGLAGTFRAFLSSRLQDLYSIVRRADRAAVPIVNLKDELLFPSWEALFSGSEGPLKPGARIFSFDGKDVLRHPTWPQKSVWHGSDPNGRRLTESYCETWRTEAPSATGQASSLLGGRLLGQSAASCHHAYIVLCIENSFMTASK
modifications: Endostatin
notes: 20-kDa C-terminal fragment of type XVIII collagen
- effect on α5β1 integrin [12]: inhibit α5β1 integrin
- clinical results with chemotherapies and radiotherapies ([3]; combination, ref Alday-Parejo et al., 2019): the results were inconsistent

B4: Arresten: the α1(IV) NC1 domain (protein, UniProt P02462 1445-1669, looked up)
Arresten: GFLVTRHSQTIDDPQCPSGTKILYHGYSLLYVQGNERAHGQDLGTAGSCLRKFSTMPFLFCNINNVCNFASRNDYSYWLSTPEPMPMSMAPITGENIRPFISRCAVCEAPAMVMAVHSQTIQIPPCPSGWSSLWIGYSFVMHTSAGAEGSGQALASPGSCLEEFRSAPFIECHGRGTCNYYANAYSFWLATIERSEMFKKPTPSTLKAGELRTHVSRCQVCMRRT
modifications: Arresten
notes: the α1(IV) NC1 domain
- effect on angiogenesis [10]: inhibit angiogenesis
